According to patent US20210188971A1 (QUIDEL, published 2021):

Biological target: T1, L1-10 fusion protein (human)
T1 construct: also called L1-10, unlabeled; L1-10 antigen
Test: indirect sandwich luminescence ELISA, L1-10 held by anti-MBP or StrepMAb on RAM
Procedure: Appropriate diluted standards were prepared along with controls and samples in a Assay Diluent in a separate non-sticky plate. 50 μl or 100 μl of each antibody or antigen (at indicated concentrations) were pipetted to the plate wells. Plates were sealed and incubated for 60 minutes at RT (unless otherwise indicated). The plates were washed with PBST 4×. 50 μl/well of Furimazine substrate was pipetted and incubated for 3 minutes at RT.
The mouse monoclonal antibody served as the anchor for L1-10.

B1: M22_NLuc_HisTag antibody protein (antibody, human IgG1, lambda)
heavy: not shown
light: LTVLTQPPSVSGAPRQRVTISCSGNSSNIGNNAVNWYQQLPGKAPKLLIYYDDQLPSGVSDRFSGSRSGTSASLAIRGLQSEDEADYYCTSWDDSLDSQLFGGGTRLTVLGQPKAAPSVTLFPPSSEELQANKATLVCLISDFYPGAVTVAWKADSSPVKAGVETTTPSKQSNNKYAASSYLSLTPEQWKSHKSYSCQVTHEGSTVEKTVAPTECS
notes: also called M22_Luc; mAb Nluc-His
binding result: binds
